Measured values reported in patent US20170165373A1 (Amgen, published 2017).
Residue numbers refer to the chain shown, from its start. Names and notes keep the numbering of the source. Like-named read-outs stand apart in the source and are kept apart here.

B1: 32B5-MCC-DM1 (antibody drug conjugate) (other)
VH: EVQLLESGGALVQPGGSLRLSCAASGFTFSSYAMNWVRQAPGKGLEWVSAISVGGDTYYADSVKGRFTISRDNSKNTLYLHVNSLSAEDSAVYYCAKDQVTLVRGVWYYYGLDVWGQGTTVTVSS
VL: VIVLIQSPLSLPVTPGEPASISCRSSQSLLHSNGNNYLDWYLQKPGQSPHLLISLGSNRTSGVPDRFSGSGSGTDFTLKISRVEAEDVGFYYCMQALQPPRRFGQGTKLEIKR
modifications: antibody carries DM1 through the MCC linker; sites not stated
B2: 32B5 (antibody, V domains shown)
VH: B1 VH
VL: B1 VL
notes: 32B5.1 was purified hybridoma IgG2 or IgG4; later converted to human IgG1; also called Ab-10; 32B5.1
B3: 33C7 (antibody, V domains shown)
VH: B1 VH
VL: B1 VL
notes: Tested as purified hybridoma IgG2 or IgG4; also called Ab-11; 33C7_HC#1
B4: 32B5 (N69Q) (antibody, human IgG1, kappa, V domains shown)
VH: B1 VH
VL: B1 VL with N58Q
notes: also called 32B5 (LC: N69Q); P70169.3
B5: 29C12 (antibody, V domains shown)
VH: B1 VH with H81Q, V82M, S86R, S90T, L102M
VL: B1 VL with V1D, L4M, F90V
notes: also called Ab-8; 29C12.1
B6: 37B2 (antibody, V domains shown)
VH: B1 VH with S31N
VL: B1 VL
notes: Tested as purified hybridoma IgG2 or IgG4; also called Ab-16; 37B2.1
B7: 40D7 (antibody, V domains shown)
VH: B1 VH with H81Q, V82M, S86R, S90T, L102M
VL: B1 VL with V1D, L4M, Y37F, F67L, F90I, Q98R
notes: also called Ab-17; 40D7.1
B8: 35D2 (antibody, V domains shown)
VH: B1 VH with D56G, S86R, S90T, L102M
VL: B1 VL
notes: also called Ab-15; 35D2.1
B9: 32B5 (T71A) (antibody, human IgG1, kappa, V domains shown)
VH: B1 VH
VL: B1 VL with T60A
notes: also called 32B5 (LC: T71A); P70170.3
B10: 32H3 (antibody, V domains shown)
VH: EVQLLESGGGLVQPGGSLRLSCAASGFTFSSYAMSWVRQAPGKGLKWVSAISGGAGNTYYADSVKGRFTISRDISKSTVYLQMTSLRAEDTAIYYCAKDGVGTTGGYFYYHGMDVWGQGTTVTVSS
VL: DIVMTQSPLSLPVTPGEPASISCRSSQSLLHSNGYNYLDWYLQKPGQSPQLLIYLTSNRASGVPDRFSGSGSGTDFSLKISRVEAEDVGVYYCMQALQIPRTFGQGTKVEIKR
notes: Tested as purified hybridoma IgG2 or IgG4; also called Ab-12; 32H3.1
B11: 1E1-PEG4-Mal-DM4 (antibody drug conjugate) (other)
VH: QVQLVQSGAEVKKPGASVKVSCKASGYTFTGHYIHWVRQAPGQGLEWMGWIYPNSGGTNYAQKFQGRVTMTRDTSISTAYMELSRLRSDDSAVYYCAREGMVTGDYYYYRMDVWGQGTTVIVSS
VL: QPVLTQPPSASASLGASVTLTCSLSSGYSNYKVDWYQQRPGKGPRFVMRVGIGGIVGSKGDGIPDRFSVLGSGLNRYLTIKNIQEEDESDFHCGADHGSGNNFVYVFGTGTKVTVLG
modifications: antibody carries DM4 through the PEG4-Mal linker; sites not stated

How the values were obtained:
[1] = molecular target: T1, human BCMA (huBCMA), full length, on cells (human, UniProt Q02223 1-184); experiment: cell-based or functional assay
T1 chain: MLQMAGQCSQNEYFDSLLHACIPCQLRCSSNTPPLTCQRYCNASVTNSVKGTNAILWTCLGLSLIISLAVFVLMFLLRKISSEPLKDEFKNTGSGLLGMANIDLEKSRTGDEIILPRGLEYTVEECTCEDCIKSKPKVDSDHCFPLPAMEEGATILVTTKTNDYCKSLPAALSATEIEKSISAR

[2] = molecular target: T1, human BCMA (huBCMA), full length, on …; experiment: FACS on H929 cells, native BCMA, relative binding, indirect
[3] = molecular target: T2, cynomolgus BCMA, on transiently transfected 293T cells (cynomolgus (Macaca fascicularis), UniProt Q02223 1-184 (human entry)); experiment: FACS O/N
T2 construct: also called cyno BCMA
T2 sequence (Q02223 other isoform, or with tags, fused parts or gaps): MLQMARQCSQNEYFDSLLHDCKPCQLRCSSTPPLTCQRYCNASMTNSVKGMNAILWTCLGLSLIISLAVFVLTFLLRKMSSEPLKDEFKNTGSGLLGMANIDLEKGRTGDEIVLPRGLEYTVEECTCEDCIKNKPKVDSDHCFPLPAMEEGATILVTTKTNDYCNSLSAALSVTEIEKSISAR

[4] = molecular target: T2, cynomolgus BCMA, on transiently …; experiment: FACS
[5] = molecular target: T3, TACI, full length, on transiently transfected cells (human, UniProt O14836 1-293); experiment: FACS
T3 construct: whole, on cells; also called huTACI
T3 sequence (looked up): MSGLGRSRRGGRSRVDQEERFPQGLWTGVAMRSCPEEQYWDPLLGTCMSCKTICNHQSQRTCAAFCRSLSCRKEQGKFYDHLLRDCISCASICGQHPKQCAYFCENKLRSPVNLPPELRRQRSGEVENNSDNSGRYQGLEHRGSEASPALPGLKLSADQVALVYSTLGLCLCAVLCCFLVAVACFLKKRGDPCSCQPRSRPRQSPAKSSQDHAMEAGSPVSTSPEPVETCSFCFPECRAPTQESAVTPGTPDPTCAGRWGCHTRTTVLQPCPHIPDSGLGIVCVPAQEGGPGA

[6] = molecular target: T1, human BCMA (huBCMA), full length, on …; experiment: FACS
[7] = molecular target: T1, human BCMA (huBCMA), full length, on …; experiment: APRIL blocking FACS; set-up: concentration or dose not given beside the values
[8] = molecular target: T1, human BCMA (huBCMA), full length, on …; experiment: FACS, H929 cells
[9] = molecular target: T2, cynomolgus BCMA, on transiently …; experiment: FACS; remark: listed apart in the source
[10] = molecular target: T3, TACI, full length, on transiently …; experiment: FACS; remark: listed apart in the source
[11] = molecular target: T1, human BCMA (huBCMA), full length, on …; experiment: FACS

Row | Binder | MFI [3] | MFI [4] | MFI [5] | binding result [5] | MFI [6] | % Inhibition n=1 [7] | % Inhibition n=2 [7] | Avg. % Inhibition [7] | also measured
1 | B1 | – | – | – | – | – | – | – | – | H929 cell growth inhibition IC50 (CellTiter-Glo, 96 h) [1]: 0.506 nM; EC50 [2]: 7 nM
2 | B2 | 108 | 259000 | 274 | no binding | 137000 | 87% | 116% | 101% | EC50 [2]: 4.2 nM
3 | B3 | 109 | 238000 | 1890 | no binding | 132000 | 68% | 88% | 78% | –
4 | B4 | – | – | – | – | – | – | – | – | binding result [8]: binds
5 | B5 | 110 | 97300 | 256 | no binding | 82600 | 30% | 62% | 46% | –
6 | B6 | 104 | 136000 | 1040 | no binding | 83700 | 37% | 58% | 48% | –
7 | B7 | – | – | – | – | – | – | – | – | MFI [9]: 39300; MFI [10]: 1390; binding result [10]: no binding; MFI [11]: 36300
8 | B8 | 152 | 198000 | 506 | no binding | 129000 | 57% | 82% | 70% | –
9 | B9 | – | – | – | – | – | – | – | – | binding result [8]: binds
10 | B10 | 122 | 51200 | 1360 | no binding | 97700 | 20% | 47% | 33% | –
11 | B11 | – | – | – | – | – | – | – | – | cell viability IC50 (CellTiter-Glo, 96 h), H929 cells [1]: 0.68 nM
